Results taken from IntAct's records for PubMed 22939624.

B1: non-specific protein-tyrosine kinase (Homo sapiens), A9UEZ6 (parent)
chain: MVDPVGFAEAWKAQFPDSEPPRMELRSVGDIEQELERCKASIRRLEQEVNQERFRMIYLQTLLAKEKKSYDRQRWGFRRAAQAPDGASEPRASASRPQPAPADGADPPPAEEPEARPDGEGSPGKARPGTARRPGAAASGERDDRGPPASVAALRSNFERIRKGHGQPGADAEKPFYVNVEFHHERGLVKVNDKEVSDRISSLGSQAMQMERKKSQHGAGSSVGDASRPPYRGRSSESSCGVDGDYEDAELNPRFLKDNLIDANGGSRPPWPPLEYQPYQSIYVGGMMEGEGKGPLLRSQSTSEQEKRLTWPRRSYSPRSFEDCGGGYTPDCSSNENLTSSEEDFSSGQSSRVSPSPTTYRMFRDKSRSPSQNSQQSFDSSSPPTPQCHKRHRHCPVVVSEATIVGVRKTGQIWPNDGEGAFHGDADGSFGTPPGYGCAADRAEEQRRHQDGLPYIDDSPSSSPHLSSKGRGSRDALVSGALESTKASELDLEKGLEMRKWVLSGILASEETYLSHLEALLLPMKPLKAAATTSQPVLTSQQIETIFFKVPELYEIHKEFYDGLFPRVQQWSHQQRVGDLFQKLASQLGVYRVLGYNHNGEWCEAQTKNGQGWVPSNYITPVNSLEKHSWYHGPVSRNAAEYLLSSGINGSFLVRESESSPGQRSISLRYEGRVYHYRINTASDGKLYVSSESRFNTLAELVHHHSTVADGLITTLHYPAPKRNKPTVYGVSPNYDKWEMERTDITMKHKLGGGQYGEVYEGVWKKYSLTVAVKTLKEDTMEVEEFLKEAAVMKEIKHPNLVQLLGVCTREPPFYIITEFMTYGNLLDYLRECNRQEVNAVVLLYMATQISSAMEYLEKKNFIHRDLAARNCLVGENHLVKVADFGLSRLMTGDTYTAHAGAKFPIKWTAPESLAYNKFSIKSDVWAFGVLLWEIATYGMSPYPGIDLSQVYELLEKDYRMERPEGCPEKVYELMRACWQWNPSDRPSFAEIHQAFETMFQESSISDEVEKELGKQGVRGAVSTLLQAPELPTKTRTSRRAAEHRDTTDVPEMPHSKGQGESDPLDHEPAVSPLLPRKERGPPEGGLNEDERLLPKDKKTNLFSALIKKKKKTAPTPPKRSSSFREMDGQPERRGAGEEEGRDISNGALAFTPLDTADPAKSPKPSNGAGVPNGALRESGGSGFRSPHLWKKSSTLTSSRLATGEEEGGGSSSKRFLRSCSASCVPHGAKDTEWRSVTLPRDLQSTGRQFDSSTFGGHKSEKPALPRKRAGENRSDQVTRGTVTPPPRLVKKNEEAADEVFKDIMESSPGSSPPNLTPKPLRRQVTVAPASGLPHKEEAGKGSALGTPAAAEPVTPTSKAGSGAPGGTSKGPAEESRVRRHKHSSESPGRDKGKLSRLKPAPPPPPAASAGKAGGKPSQSPSQEAAGEAVLGAKTKATSLVDAVNSDAAKPSQPGEGLKKPVLPATPKPQSAKPSGTPISPAPVPSTLPSASSALAGDQPSSTAFIPLISTRVSLRKTRQPPERIASGAITKGVVLDSTEALCLAISRNSEQMASHSAVLEAGKNLYTFCVSYVDSIQQMRNKFAFREAINKLENNLRELQICPATAGSGPAATQDFSKLLSSVKEISDIVQR

Variants of: B1
Conditions: with hs90b_human HSP90AB1, P08238
Chain of hs90b_human HSP90AB1, P08238 (P08238 whole entry): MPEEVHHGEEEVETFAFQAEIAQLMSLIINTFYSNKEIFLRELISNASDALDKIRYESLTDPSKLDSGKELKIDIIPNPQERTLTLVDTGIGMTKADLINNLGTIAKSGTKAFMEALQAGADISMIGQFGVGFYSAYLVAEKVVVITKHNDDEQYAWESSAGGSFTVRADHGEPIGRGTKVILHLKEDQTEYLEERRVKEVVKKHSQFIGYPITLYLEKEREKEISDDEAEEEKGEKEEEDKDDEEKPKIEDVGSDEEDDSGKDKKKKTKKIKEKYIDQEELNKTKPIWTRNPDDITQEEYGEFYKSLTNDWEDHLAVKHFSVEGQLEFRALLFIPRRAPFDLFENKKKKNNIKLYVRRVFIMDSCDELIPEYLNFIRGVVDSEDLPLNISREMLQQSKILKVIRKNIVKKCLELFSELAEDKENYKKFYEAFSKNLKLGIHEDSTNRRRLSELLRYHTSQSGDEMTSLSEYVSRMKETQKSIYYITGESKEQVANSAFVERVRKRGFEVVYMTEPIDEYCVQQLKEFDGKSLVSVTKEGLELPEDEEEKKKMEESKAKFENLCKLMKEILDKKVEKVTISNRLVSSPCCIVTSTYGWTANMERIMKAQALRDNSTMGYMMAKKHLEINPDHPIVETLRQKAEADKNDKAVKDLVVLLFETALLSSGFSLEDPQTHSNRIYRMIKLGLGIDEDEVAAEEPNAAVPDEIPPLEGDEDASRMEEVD

effect of a mutation on the interaction | Variant
decreasing interaction | M747I
increasing interaction | M975I
